Data: IntAct's records for PubMed 31515488

B1: Microtubule-associated tumor suppressor candidate 2 (Homo sapiens), Q5JR59-3 (parent)
chain: MGHCCCKPYNCLQCLDKTNESALVKEKELSIELANIRDEVAFHTAKCEKLQKEKEELERRFEDEVKRLGWQQQAELQELEERLQLQFEAEMARLQEEHGDQLLSIRCQHQEQVEDLTASHDAALLEMENNHTVAITILQDDHDHKVQELMSTHELEKKELEENFEKLRLSLQDQVDTLTFQSQSLRDRARRFEEALRKNTEEQLEIALAPYQHLEEDMKSLKQVLEMKNQQIHEQEKKILELEKLAEKNIILEEKIQVLQQQNEDLKARIDQNTVVTRQLSEENANLQEYVEKETQEKKRLSRTNEELLWKLQTGDPTSPIKLSPTSPVYRGSSSGPSSPARVSTTPR
partner: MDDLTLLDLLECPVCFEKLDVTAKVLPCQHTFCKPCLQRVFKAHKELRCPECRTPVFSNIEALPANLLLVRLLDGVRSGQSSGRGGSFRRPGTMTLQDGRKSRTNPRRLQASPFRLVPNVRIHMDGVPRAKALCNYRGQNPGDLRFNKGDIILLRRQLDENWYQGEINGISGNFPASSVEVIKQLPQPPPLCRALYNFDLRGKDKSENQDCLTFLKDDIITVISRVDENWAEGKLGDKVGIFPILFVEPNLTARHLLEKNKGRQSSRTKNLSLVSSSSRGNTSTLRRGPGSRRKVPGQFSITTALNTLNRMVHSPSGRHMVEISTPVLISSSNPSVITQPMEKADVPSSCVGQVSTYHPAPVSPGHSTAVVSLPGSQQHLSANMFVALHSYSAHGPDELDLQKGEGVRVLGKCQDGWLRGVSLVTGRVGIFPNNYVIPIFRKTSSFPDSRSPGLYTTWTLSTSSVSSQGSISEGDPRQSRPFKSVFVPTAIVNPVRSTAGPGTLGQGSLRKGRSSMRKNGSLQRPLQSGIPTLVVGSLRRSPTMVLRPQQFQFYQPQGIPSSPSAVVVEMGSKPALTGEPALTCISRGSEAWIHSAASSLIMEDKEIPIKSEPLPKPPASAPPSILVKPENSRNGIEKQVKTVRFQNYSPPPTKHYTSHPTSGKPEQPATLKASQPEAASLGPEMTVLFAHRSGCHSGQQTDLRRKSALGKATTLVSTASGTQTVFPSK
B2: RUN and FYVE domain-containing protein 1 (Homo sapiens), Q96T51-2 (parent)
chain: MMEERANLMHMMKLSIKVLLQSALSLGRSLDADHAPLQQFFVVMEHCLKHGLKVKKSFIGQNKSFFGPLELVEKLCPEASDIATSVRNLPELKTAVGRGRAWLYLALMQKKLADYLKVLIDNKHLLSEFYEPEALMMEEEGMVIVGLLVGLNVLDANLCLKGEDLDSQVGVIDFSLYLKDVQDLDGGKEHERITDVLDQKNYVEELNRHLSCTVGDLQTKIDGLEKTNSKLQEELSAATDRICSLQEEQQQLREQNELIRERSEKSVEITKQDTKVELETYKQTRQGLDEMYSDVWKQLKEEKKVRLELEKELELQIGMKTEMEIAMKLLEKDTHEKQDTLVALRQQLEEVKAINLQMFHKAQNAESSLQQKNEAITSFEGKTNQVMSSMKQMEERLQHSERARQGAEERSHKLQQELGGRIGALQLQLSQLHEQCSSLEKELKSEKEQRQALQRELQHEKDTSSLLRMELQQVEGLKKELRELQDEKAELQKICEEQEQALQEMGLHLSQSKLKMEDIKEVNQALKGHAWLKDDEATHCRQCEKEFSISRRKHHCRNCGHIFCNTCSSNELALPSYPKPVRVCDSCHTLLLQRCSSTAS
partner: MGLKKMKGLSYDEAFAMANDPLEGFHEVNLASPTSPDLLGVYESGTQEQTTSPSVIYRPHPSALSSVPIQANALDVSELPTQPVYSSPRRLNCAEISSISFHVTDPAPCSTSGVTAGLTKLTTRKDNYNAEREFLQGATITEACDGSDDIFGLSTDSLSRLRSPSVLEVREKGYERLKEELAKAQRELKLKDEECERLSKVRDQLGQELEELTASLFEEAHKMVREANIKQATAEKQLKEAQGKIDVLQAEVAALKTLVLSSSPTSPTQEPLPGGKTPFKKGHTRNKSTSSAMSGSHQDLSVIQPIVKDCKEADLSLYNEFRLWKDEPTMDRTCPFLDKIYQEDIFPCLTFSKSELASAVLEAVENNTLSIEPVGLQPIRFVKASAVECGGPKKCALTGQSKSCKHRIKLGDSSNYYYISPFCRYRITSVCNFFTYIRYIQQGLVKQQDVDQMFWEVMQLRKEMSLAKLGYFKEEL
B3: DNA topoisomerase 3-beta-1 (Homo sapiens), O95985 (parent)
chain: MKTVLMVAEKPSLAQSIAKILSRGSLSSHKGLNGACSVHEYTGTFAGQPVRFKMTSVCGHVMTLDFLGKYNKWDKVDPAELFSQAPTEKKEANPKLNMVKFLQVEGRGCDYIVLWLDCDKEGENICFEVLDAVLPVMNKAHGGEKTVFRARFSSITDTDICNAMACLGEPDHNEALSVDARQELDLRIGCAFTRFQTKYFQGKYGDLDSSLISFGPCQTPTLGFCVERHDKIQSFKPETYWVLQAKVNTDKDRSLLLDWDRVRVFDREIAQMFLNMTKLEKEAQVEATSRKEKAKQRPLALNTVEMLRVASSSLGMGPQHAMQTAERLYTQGYISYPRTETTHYPENFDLKGSLRQQANHPYWADTVKRLLAEGINRPRKGHDAGDHPPITPMKSATEAELGGDAWRLYEYITRHFIATVSHDCKYLQSTISFRIGPELFTCSGKTVLSPGFTEVMPWQSVPLEESLPTCQRGDAFPVGEVKMLEKQTNPPDYLTEAELITLMEKHGIGTDASIPVHINNICQRNYVTVESGRRLKPTNLGIVLVHGYYKIDAELVLPTIRSAVEKQLNLIAQGKADYRQVLGHTLDVFKRKFHYFVDSIAGMDELMEVSFSPLAATGKPLSRCGKCHRFMKYIQAKPSRLHCSHCDETYTLPQNGTIKLYKELRCPLDDFELVLWSSGSRGKSYPLCPYCYNHPPFRDMKKGMGCNECTHPSCQHSLSMLGIGQCVECESGVLVLDPTSGPKWKVACNKCNVVAHCFENAHRVRVSADTCSVCEAALLDVDFNKAKSPLPGDETQHMGCVFCDPVFQELVELKHAASCHPMHRGGPGRRQGRGRGRARRPPGKPNPRRPKDKMSALAAYFV
B4: IQ motif and ubiquitin-like domain-containing protein (Homo sapiens), Q8NA54 (parent)
chain: MSNQQEKYEAQNIVNSTEESDDAFDTVTIPVPSEEPQESDQTEEHESGIEQFSESHAIHVEEQSDQSFSSLEPDNEQLMEEVISPRQVSYTPQHHEKQYAMQRPNDDSLAFLDKIKSVKESLQESVEDSLATVKVVLIPVGQEIVIPFKVDTILKYLKDHFSHLLGIPHSVLQIRYSGKILKNNETLVQHGVKPQEIVQVEIFSTNPDLYPVRRIDGLTDVSQIITVTVQTGLDQYQQVPVEIVKSDFHKPFLGGFRHKVTGVEYHNAGTQTVPKRIPERLSIFCRDTQTVFQKKNLQQTTNTTSTQMTNIGVYVSNMTDKLVTPGKYFSAAEYHAQRLKAVIVIQTYYRQWHAKIFVENLRRQKSLRLEWETQQELRKIREKEEWIKLDYHRRHNPKTNEDFEFLYNALEFWRQEELTRINQSFTGAERKAALCELLEKETQIIASIGRHRYIAYMANQEAAIQAFLDKCSAPKIWRTPNGKTIEMDTQFTIRARELQNIYKCIMLKNISQDERLDVLLTLKHTVKEHECKLTQEILELIDREVDLMMRGVKHHNLEGLRKRIATLFFHYIKTPLFNPEVAKYLKVPQDPLKFYKKIYFCHSCQLYLPSTEFSVSSTSRRIYRCRNCINLQNEAQKRESFLKYKCLLQQLYYTEADYEDDSKIAFLMQLQDIQYLTENIWASQSVLSACDNLSDLVMVRWNKSLEWSPWNCILLTKDEAAAHLKLTSIEEGYERSFIHKIKHKHILAKNYFSQVPVLASFILDDGEIDEIRWKYHSDTTPKIIESQRPPH
partner: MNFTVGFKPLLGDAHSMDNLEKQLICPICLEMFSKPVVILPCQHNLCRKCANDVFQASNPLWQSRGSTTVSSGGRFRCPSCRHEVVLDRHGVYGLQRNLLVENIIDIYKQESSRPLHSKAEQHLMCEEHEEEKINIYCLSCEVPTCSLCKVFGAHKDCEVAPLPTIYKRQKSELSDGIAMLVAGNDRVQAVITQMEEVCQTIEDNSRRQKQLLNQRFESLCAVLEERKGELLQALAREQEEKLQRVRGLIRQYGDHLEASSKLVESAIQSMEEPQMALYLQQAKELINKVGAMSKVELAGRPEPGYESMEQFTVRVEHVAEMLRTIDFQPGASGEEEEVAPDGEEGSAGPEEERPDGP

Variants of: B1
Conditions: with sh3r2_human SH3RF2, Q8TEC5

Row | effect of a mutation on the interaction | Variant
1 | with no effect | MGHCCCKPYNCLQCLDKTNESALVKEKELSIELANIRDEVAFHTAKCEKLQKEKEELERRFEDEVKRLGWQQQAELQELEERLQLQFEVEMARLQEEHGDQLLSIRCQHQEQVEDLTASHDAALLEMENNHTVAITILQDDHDHKVQELMSTHELEKKELEENFEKLRLSLQDQVDTLTFQSQSLRDRARRFEEALRKNTEEQLEIALAPYQHLEEDMKSLKQVLEMKNQQIHEQEKKILELEKLAEKNIILEEKIQVLQQQNEDLKARIDQNTVVTRQLSEENANLQEYVEKETQEKKRLSRTNEELLWKLQTGDPTSPIKLSPTSPVYRGSSSGPSSPARVSTTPR [A89V]

Variants of: B2
Conditions: with rab3i_human RAB3IP

Row | effect of a mutation on the interaction | Variant
2 | with no effect | MMEERANLMHMMKLSIKVLLQSALSLGRSLDADHAPLQQFFVVMEHCLKHGLKVKKSFIGQNKSFFGPLELVEKLCPEASDIATSVRNLPELKTAVGRGRAWLYLALMQKKLADYLKVLIDNKHLLSEFYEPEALMMEEEGMVIVGLLVGLNVLDANLFLKGEDLDSQVGVIDFSLYLKDVQDLDGGKEHERITDVLDQKNYVEELNRHLSCTVGDLQTKIDGLEKTNSKLQEELSAATDRICSLQEEQQQLREQNELIRERSEKSVEITKQDTKVELETYKQTRQGLDEMYSDVWKQLKEEKKVRLELEKELELQIGMKTEMEIAMKLLEKDTHEKQDTLVALRQQLEEVKAINLQMFHKAQNAESSLQQKNEAITSFEGKTNQVMSSMKQMEERLQHSERARQGAEERSHKLQQELGGRIGALQLQLSQLHEQCSSLEKELKSEKEQRQALQRELQHEKDTSSLLRMELQQVEGLKKELRELQDEKAELQKICEEQEQALQEMGLHLSQSKLKMEDIKEVNQALKGHAWLKDDEATHCRQCEKEFSISRRKHHCRNCGHIFCNTCSSNELALPSYPKPVRVCDSCHTLLLQRCSSTAS [C159F]

Variants of: B3
Conditions: with trim1_human MID2, Q9UJV3
Chain of trim1_human MID2, Q9UJV3 (Q9UJV3 whole entry): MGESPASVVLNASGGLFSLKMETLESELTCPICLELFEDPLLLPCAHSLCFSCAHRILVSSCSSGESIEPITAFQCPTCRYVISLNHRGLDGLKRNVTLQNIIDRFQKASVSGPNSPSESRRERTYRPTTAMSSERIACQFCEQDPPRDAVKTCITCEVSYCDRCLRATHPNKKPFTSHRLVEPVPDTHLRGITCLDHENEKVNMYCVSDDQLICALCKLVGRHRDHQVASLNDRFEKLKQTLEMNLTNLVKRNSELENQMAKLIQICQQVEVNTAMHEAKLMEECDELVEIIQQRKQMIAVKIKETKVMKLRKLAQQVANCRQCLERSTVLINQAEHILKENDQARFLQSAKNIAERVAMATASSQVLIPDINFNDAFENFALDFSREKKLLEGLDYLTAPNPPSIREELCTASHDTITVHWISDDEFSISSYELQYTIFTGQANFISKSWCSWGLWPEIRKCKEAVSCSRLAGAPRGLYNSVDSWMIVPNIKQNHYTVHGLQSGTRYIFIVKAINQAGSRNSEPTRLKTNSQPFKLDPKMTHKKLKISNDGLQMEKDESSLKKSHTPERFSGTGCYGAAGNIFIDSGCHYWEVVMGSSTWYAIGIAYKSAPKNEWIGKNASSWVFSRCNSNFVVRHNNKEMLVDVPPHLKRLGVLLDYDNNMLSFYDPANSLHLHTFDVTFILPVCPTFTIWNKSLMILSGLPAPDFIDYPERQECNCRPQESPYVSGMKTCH

Row | effect of a mutation on the interaction | Variant
3 | disrupting interaction strength | R267W

Variants of: B3
Conditions: with tri41_human TRIM41, Q8WV44

Row | effect of a mutation on the interaction | Variant
4 | disrupting interaction strength | R267W

Variants of: B4
Conditions: with tri54_human TRIM54, Q9BYV2

Row | effect of a mutation on the interaction | Variant
5 | with no effect | V126M
